Experimental data as given in publication PMC13376213, “Systematic discovery of motif-based interactions of the auxiliary domains of USP family deubiquitinases” (Nature Communications, 2026).

Key:
[1] = test system: FLAG-USP20; assay: IP-MS of FLAG-USP20 and variants vs empty vector; assay type: cell-based, human
Description: For transfection, 1x10^6 HEK293 cells were seeded in 10 cm dishes with DMEM, 10% FBS, 1% L-G (without antibiotic) medium, incubated at 37 °C, with 5 % CO2 for 24 h. Cells were transfected with a transfection mix containing 970 mL of Opti-MEM (Thermo Fisher Scientific), 20 μL of PEI stock (1 mg/mL) and 5 mg of the desired cDNA. For co-transfection, 2.5 μg of DNA of each plasmid was used. The mix was vortexed for 15 s and incubated at room temperature for 15–20 min. The transfection mix was added to the dish and gently mixed. Plates were incubated at 37 °C for 36–48 h before harvesting. For USP33 constructs, 5 μM Bortezomib (proteasome inhibitor) was added 4 hours before harvesting the cells.
FLAG fusion proteins were immunoprecipitated from HEK293 cells transfected with plasmids encoding the protein of interest using the anti-FLAG M2 affinity gel from Sigma-Aldrich. […] The cell lysate was clarified by centrifugation at 17,000 x g, at 4 °C for 12 min, and the supernatant was transferred to a clean, pre-chilled low-binding Eppendorf tube. […] The IP samples were centrifuged at 6500 x g at 4 °C for 30 s. The supernatant containing the unbound proteins was transferred to a clean tube. The resin was washed three times with 500 μL of TBS, centrifuged at 6500 x g at 4 °C for 30 s. The bound FLAG fusion protein was eluted with 100 μL of 150 ng/μL 3X FLAG peptide (Sigma) in TBS and incubated in the cold room for 1 h or overnight. The tube was centrifuged at 6500 x g at 4 °C for 30 s; the eluted proteins were transferred to a clean tube. The eluted proteins were prepared for analysis by western blot or Mass Spectrometry.
Immunoprecipitation (IP) was carried out as described above; four technical replicates of each IP condition were performed, and the empty vector was used as a negative control. The eluted protein was processed following the Strap-micro protocol (Protifi). The IP elution containing 1–100 μg protein was 1:1 mixed with 2X lysis buffer (10% SDS, 100 mM TEAB pH 8.5). […] Samples were vortexed, mixed with 165 μL of 100 mM TEAB in 90% methanol, and passed through an S-Trap micro column at 4000 g for 30 s to trap the proteins. The column was washed with 150 μL of 100 mM TEAB in 90% methanol (at 4,000 x g for 30 seconds) three times. The S-Trap column was centrifuged again and transferred to a clean 2 mL tube for digestion with 20 μL of digestion buffer (1 μg trypsin per 10 μg sample in 50 mM TEAB), at 37 °C overnight in a thermomixer without shaking. The digested peptides were eluted with 40 mL of 50 mM TEAB in water, 40 mL of 0.2 % formic acid in water, and 40 mL of 50 % acetonitrile in water, centrifuging at 4000 x g for 1 min each time. The three elutions were pooled in a low-binding tube, placed on dry ice until frozen, dried in a SpeedVac vacuum (Thermo Scientific), and proceeded with the LCMS analysis.
Protein groups identified with a single peptide or quantified in fewer than three replicates in at least 1 condition were filtered out. Protein group intensities were median normalized and missing values were imputed using a Gaussian distribution centered on the median with a downshift of 1.8 and width of 0.3 (relative to the standard deviation).

[2] = test system: FLAG-USP33; assay: IP-MS of FLAG-USP33 and variants vs empty vector; assay type: cell-based, human
Description: For transfection, 1x10^6 HEK293 cells were seeded in 10 cm dishes with DMEM, 10% FBS, 1% L-G (without antibiotic) medium, incubated at 37 °C, with 5 % CO2 for 24 h. Cells were transfected with a transfection mix containing […] of Opti-MEM (Thermo Fisher Scientific), 20 μL of PEI stock (1 mg/mL) and […] of the desired cDNA. For co-transfection, 2.5 μg of DNA of each plasmid was used. The mix was vortexed for 15 s and incubated at room temperature for 15–20 min. The transfection mix was added to the dish and gently mixed. Plates were incubated at 37 °C for 36–48 h before harvesting. For USP33 constructs, 5 μM Bortezomib (proteasome inhibitor) was added 4 hours before harvesting the cells.
FLAG fusion proteins were immunoprecipitated from HEK293 cells transfected with plasmids encoding the protein of interest using the anti-FLAG M2 affinity gel from Sigma-Aldrich. Cell pellets were lysed with 100–200 μL/per dish lysis buffer (Pierce RIPA buffer, 1X protease inhibitor (Roche), 50 unit/μL of Benzonase Nuclease) rotating at 4 °C for 30–45 min. […] The cell lysate was clarified by centrifugation at 17,000 x g, at 4 °C for 12 min, and the supernatant was transferred to a clean, pre-chilled low-binding Eppendorf tube. […] The IP samples were centrifuged at 6500 x g at 4 °C for 30 s. The supernatant containing the unbound proteins was transferred to a clean tube. The resin was washed three times with 500 μL of TBS, centrifuged at 6500 x g at 4 °C for 30 s. The bound FLAG fusion protein was eluted with 100 μL of 150 ng/μL 3X FLAG peptide (Sigma) in TBS and incubated in the cold room for 1 h or overnight. The tube was centrifuged at 6500 x g at 4 °C for 30 s; the eluted proteins were transferred to a clean tube. The eluted proteins were prepared for analysis by western blot or Mass Spectrometry.
Immunoprecipitation (IP) was carried out as described above; four technical replicates of each IP condition were performed, and the empty vector was used as a negative control. The eluted protein was processed following the Strap-micro protocol (Protifi). The IP elution containing 1–100 μg protein was 1:1 mixed with 2X lysis buffer (10% SDS, 100 mM TEAB pH 8.5). […] Samples were vortexed, mixed with 165 μL of 100 mM TEAB in 90% methanol, and passed through an S-Trap micro column at 4000 g for 30 s to trap the proteins. The column was washed with 150 μL of 100 mM TEAB in 90% methanol (at 4,000 x g for 30 seconds) three times. The S-Trap column was centrifuged again and transferred to a clean 2 mL tube for digestion with 20 μL of digestion buffer (1 μg trypsin per 10 μg sample in 50 mM TEAB), at 37 °C overnight in a thermomixer without shaking. The digested peptides were eluted with […] of 50 mM TEAB in water, […] of 0.2 % formic acid in water, and […] of 50 % acetonitrile in water, centrifuging at 4000 x g for 1 min each time. The three elutions were pooled in a low-binding tube, placed on dry ice until frozen, dried in a SpeedVac vacuum (Thermo Scientific), and proceeded with the LCMS analysis.
Eluted peptides were resuspended in water supplemented with 0.015% dodecyl maltoside and 0.1% formic acid and were injected on a Vanquish Neo UHPLC System operating in trap and elute mode coupled to an Orbitrap Astral Mass Spectrometer (Thermo Fisher Scientific). […] Eluted peptides were analyzed using data-independent acquisition mode on the mass spectrometer.
Peptides were searched against the Uniprot Swissprot Human database (released on 02/01/2023) supplemented with the USP20 and USP33 mutants using DiaNN (v1.9.0)[62] operating in library-free mode. Data filtering and statistical analysis were carried out in Python (v3.9.0) using the packages pandas, numpy, sklearn, scipy, rpy2, Plotnine, and Plotly and R (v4.4.3) using the package limma.
Protein groups identified with a single peptide or quantified in fewer than three replicates in at least 1 condition were filtered out. […]

[3] = IP-MS, FLAG-USP20-ΔUBP vs EV, comparison bh_2 Sample_Limma_ImpMedInt_USP20_UBP_domain/EV
[4] = IP-MS, FLAG-USP20 vs EV, comparison USP20_wt/EV, Limma
[5] = Table S7b USP20 MS_and_motif, bait USP20
[6] = IP-MS, FLAG-USP33-ΔDUSP2 vs EV, comparison bh_2 Sample_Limma_ImpMedInt_USP33_DUSP2_domain/EV
[7] = IP-MS, FLAG-USP33-ΔUBP vs EV, comparison bh_2 Sample_Limma_ImpMedInt_USP33_UBP_domain/EV
[8] = IP-MS, FLAG-USP33 UBP mutant vs EV, comparison USP33_E86K_D90R/EV, Limma

Row | Molecule | log2_FC [1, 3] | log2_FC [1, 4] | log2_FC [1, 5] | log2_FC [2, 6] | log2_FC [2, 7] | log2_FC [2, 8] | log2_FC ([2]; IP-MS, FLAG-USP33 vs EV, comparison USP33_wt/EV, Limma) | log2_FC ([2]; Table S7c USP33 MS_and_motif, bait USP33)
1 | TMEM223 (protein, UniProt A0PJW6 1-202, looked up) Transmembrane protein 223: MAAPWRRWPTGLLAVLRPLLTCRPLQGTTLQRDVLLFEHDRGRFFTILGLFCAGQGVFWASMAVAAVSRPPVPVQPLDAEVPNRGPFDLRSALWRYGLAVGCGAIGALVLGAGLLFSLRSVRSVVLRAGGQQVTLTTHAPFGLGAHFTVPLKQVSCMAHRGEVPAMLPLKVKGRRFYFLLDKTGHFPNTKLFDNTVGAYRSL | 4.865 | 4.082 | 4.082 | 4.626 | 4.59 | 4.422 | 4.38 | 4.38
2 | BCLAF3 (protein, UniProt A2AJT9 1-711, looked up) BCLAF1 and THRAP3 family …: MARSRSRSPRWKHRSLSPVPRNAEHYKQRHSHGHYGCEYRKDPKRPVAWRMDSEKHGQSKPRIPSRGNIYYQSYEHRSPSPNIRNSLENVYMYKPHRGYSPGRGDSNRRAQYMPKYSEGIPYKEHERNSYPQKVQGGHSPDDHRVRGSGKGGKPPQRSIADSFRFEGKWHEDELRHQRIQEEKYSQSTRRGSEDFETRSSFQKRYPEDRDFRKYGHTSKRPKDVERYESREPARNPKWKPEHSLPPYQEDTDQWNLGPQTYRHAEREHPETSSATKVSYDYRHKRPKLLDGDQDFSDGRTQKYCKEEDRKYSFQKGPLNRELDCFNTGRGRETQDGQVKEPFKPSKKDSIACTYSNKNDVDLRSSNDKWKEKIKKEGDCRKESNSSSNQLDKSQKLPDVKPSPINLRKKSLTVKVDVKKTVDTFRVASSYSTERQMSHDLVAVGRKSENFHPVFEHLDSTQNTENKPTGEFAQEIITIIHQVKANYFPSPGITLHERFSTMQDIHKADVNEIPLNSDPEIHRRIDMSLAELQSKQAVIYESEQTLIKIIDPNDLRHDIERRRKERLQNEDEHIFHIASAAERDDQNSSFSKVKNVHTDGFQKPTHFIKSNFRKCIEKPYMNYTTQRKDIITHKPFEVEGNHRNTRVRPFKSNFRGGRCQPNYKSGLVQKSLYIQAKYQRLRFTGPRGFITHKFRERLMRKKKEYTDVATGI | 4.725 | 4.955 | 4.955 | – | – | 4.934 | – | –
3 | BLTP3B (protein, UniProt A0JNW5 1-1464, looked up) Bridge-like lipid transfer …: MAGIIKKQILKHLSRFTKNLSPDKINLSTLKGEGELKNLELDEEVLQNMLDLPTWLAINKVFCNKASIRIPWTKLKTHPICLSLDKVIMEMSTCEEPRSPNGPSPIATASGQSEYGFAEKVVEGISVSVNSIVIRIGAKAFNASFELSQLRIYSVNAHWEHGDLRFTRIQDPQRGEVLTFKEINWQMIRIEADATQSSHLEIMCAPVRLITNQSKIRVTLKRRLKDCNVIATKLVLILDDLLWVLTDSQLKAMVQYAKSLSEAIEKSTEQRKSMAPEPTQSSTVVASAQQVKTTQTSNAPDVNDAIVKLFNDFDVKETSHHLVISHLDLHICDDIHAKEKESNRRITGGAMQLSFTQLTIDYYPYHKAGDSCNHWMYFSDATKTKNGWANELLHEFECNVEMLKQAVKDHNVGSPPKSPTHASPQHTQTEKDYPLKGTCRTPSVLSQQSKAKLMSSSVVVRLADFNIYQVSTAEQCRSSPKSMICCNKKSLYLPQEMSAVYIEFTEYYYPDGKDFPIPSPNLYSQLNALQFTVDERSILWLNQFLLDLKQSLNQFMAVYKLNDNSKSDEHVDVRVDGLMLKFVIPSEVKSECHQDQPRAISIQSSEMIATNTRHCPNCRHSDLEALFQDFKDCDFFSKTYTSFPKSCDNFNLLHPIFQRHAHEQDTKMHEIYKGNITPQLNKNTLKTSAATDVWAVYFSQFWIDYEGMKSGKGRPISFVDSFPLSIWICQPTRYAESQKEPQTCNQVSLNTSQSESSDLAGRLKRKKLLKEYYSTESEPLTNGGQKPSSSDTFFRFSPSSSEADIHLLVHVHKHVSMQINHYQYLLLLFLHESLILLSENLRKDVEAVTGSPASQTSICIGILLRSAELALLLHPVDQANTLKSPVSESVSPVVPDYLPTENGDFLSSKRKQISRDINRIRSVTVNHMSDNRSMSVDLSHIPLKDPLLFKSASDTNLQKGISFMDYLSDKHLGKISEDESSGLVYKSGSGEIGSETSDKKDSFYTDSSSILNYREDSNILSFDSDGNQNILSSTLTSKGNETIESIFKAEDLLPEAASLSENLDISKEETPPVRTLKSQSSLSGKPKERCPPNLAPLCVSYKNMKRSSSQMSLDTISLDSMILEEQLLESDGSDSHMFLEKGNKKNSTTNYRGTAESVNAGANLQNYGETSPDAISTNSEGAQENHDDLMSVVVFKITGVNGEIDIRGEDTEICLQVNQVTPDQLGNISLRHYLCNRPVGSDQKAVIHSKSSPEISLRFESGPGAVIHSLLAEKNGFLQCHIENFSTEFLTSSLMNIQHFLEDETVATVMPMKIQVSNTKINLKDDSPRSSTVSLEPAPVTVHIDHLVVERSDDGSFHIRDSHMLNTGNDLKENVKSDSVLLTSGKYDLKKQRSVTQATQTSPGVPWPSQSANFPEFSFDFTREQLMEENESLKQELAKAKMALAEAHLEKDALLHHIKKMTVE | – | – | – | – | – | 2.646 | – | –
4 | IFT56 (protein, UniProt A0AVF1 1-554, looked up) Intraflagellar transport …: MMLSRAKPAVGRGVQHTDKRKKKGRKIPKLEELLSKRDFTGAITLLEFKRHVGEEEEDTNLWIGYCAFHLGDYKRALEEYENATKEENCNSEVWVNLACTYFFLGMYKQAEAAGFKASKSRLQNRLLFHLAHKFNDEKKLMSFHQNLQDVTEDQLSLASIHYMRSHYQEAIDIYKRILLDNREYLALNVYVALCYYKLDYYDVSQEVLAVYLQQIPDSTIALNLKACNHFRLYNGRAAEAELKSLMDNASSSFEFAKELIRHNLVVFRGGEGALQVLPPLVDVIPEARLNLVIYYLRQDDVQEAYNLIKDLEPTTPQEYILKGVVNAALGQEMGSRDHMKIAQQFFQLVGGSASECDTIPGRQCMASCFFLLKQFDDVLIYLNSFKSYFYNDDIFNFNYAQAKAATGNTSEGEEAFLLIQSEKMKNDYIYLSWLARCYIMNKKPRLAWELYLKMETSGESFSLLQLIANDCYKMGQFYYSAKAFDVLERLDPNPEYWEGKRGACVGIFQMIIAGREPKETLREVLHLLRSTGNTQVEYMIRIMKKWAKENRVSI | – | – | – | 3.226 | 2.888 | – | – | –
5 | GTPBP10 (protein, UniProt A4D1E9 1-387, looked up) GTP-binding protein 10: MVHCSCVLFRKYGNFIDKLRLFTRGGSGGMGYPRLGGEGGKGGDVWVVAQNRMTLKQLKDRYPRKRFVAGVGANSKISALKGSKGKDCEIPVPVGISVTDENGKIIGELNKENDRILVAQGGLGGKLLTNFLPLKGQKRIIHLDLKLIADVGLVGFPNAGKSSLLSCVSHAKPAIADYAFTTLKPELGKIMYSDFKQISVADLPGLIEGAHMNKGMGHKFLKHIERTRQLLFVVDISGFQLSSHTQYRTAFETIILLTKELELYKEELQTKPALLAVNKMDLPDAQDKFHELMSQLQNPKDFLHLFEKNMIPERTVEFQHIIPISAVTGEGIEELKNCIRKSLDEQANQENDALHKKQLLNLWISDTMSSTEPPSKHAVTTSKMDII | – | – | – | – | 2.53 | – | – | –
